Drawing on publication PMC3542637, this text covers Km, kcat and kcat/Km for three proteins.

Assay in all cases: purified protein
Substrate in data set [1]: C[C@H](O)[C@H]1OC(=O)[C@@H](O)[C@@H]1O
Type of data set: biochemical, Burkholderia multivorans. Conditions: pH 8.3, 2.5 mM BICINE, 0.2 M NaCl, 1% DMSO, 30 °C.

Substrate in data set [2]: O=C1O[C@H]([C@@H](O)CO)[C@@H](O)[C@@H]1O
The format is biochemical, Burkholderia multivorans. Conditions: pH 8.3, 2.5 mM BICINE, 0.2 M NaCl, 1% DMSO, 30 °C.

Substrate in data set [3]: O=C1O[C@@H](CO)[C@@H](O)[C@@H]1O
Type of data set: biochemical, Burkholderia multivorans. As to conditions: pH 8.3, 2.5 mM BICINE, 0.2 M NaCl, 1% DMSO, 30 °C.

Substrate in data set [4]: C[C@H]1C[C@@H](O)[C@H](O)C(=O)O1
The format is biochemical, Burkholderia multivorans. Conditions: pH 7.1, 2.5 mM MOPS, 0.2 M NaCl, 1% DMSO, 30 °C.

Substrate in data set [5]: O=C1O[C@H](CO)[C@@H](O)[C@@H]1O
The format is biochemical, Burkholderia multivorans. Conditions: pH 8.3, 2.5 mM BICINE, 0.2 M NaCl, 1% DMSO, 30 °C.

Substrate in data set [6]: NC(=O)c1ccc[n+]([C@@H]2O[C@H](COP(=O)(O)OP(=O)(O)OC[C@H]3O[C@@H](n4cnc5c(N)ncnc54)[C@H](O)[C@@H]3O)[C@@H](O)[C@H]2O)c1
The format is biochemical, Burkholderia multivorans. As to conditions: 200 μM L-fucose, pH 8.0, 50 mM BICINE, 30 °C, varied: cofactor.

Substrate in data set [7]: NC(=O)c1ccc[n+]([C@@H]2O[C@H](COP(=O)(O)OP(=O)(O)OC[C@H]3O[C@@H](n4cnc5c(N)ncnc54)[C@H](OP(=O)(O)O)[C@@H]3O)[C@@H](O)[C@H]2O)c1
Type of data set: biochemical, Burkholderia multivorans. As to conditions: 200 μM L-fucose, pH 8.0, 50 mM BICINE, 30 °C, varied: cofactor.

Substrate in data set [8]: C[C@H](O)[C@H]1OC(=O)[C@@H](O)[C@@H]1O
The format is biochemical, Burkholderia ambifaria. As to conditions: pH 8.3, 2.5 mM BICINE, 0.2 M NaCl, 1% DMSO, 30 °C.

Substrate in data set [9]: O=C1O[C@H]([C@@H](O)CO)[C@@H](O)[C@@H]1O
Type of data set: biochemical, Burkholderia ambifaria. Conditions: pH 8.3, 2.5 mM BICINE, 0.2 M NaCl, 1% DMSO, 30 °C.

Substrate in data set [10]: O=C1O[C@@H](CO)[C@@H](O)[C@@H]1O
The format is biochemical, Burkholderia ambifaria. Conditions: pH 8.3, 2.5 mM BICINE, 0.2 M NaCl, 1% DMSO, 30 °C.

Substrate in data set [11]: C[C@H]1C[C@@H](O)[C@H](O)C(=O)O1
The format is biochemical, Burkholderia ambifaria. As to conditions: pH 7.1, 2.5 mM MOPS, 0.2 M NaCl, 1% DMSO, 30 °C.

Substrate in data set [12]: O=C1O[C@H](CO)[C@@H](O)[C@@H]1O
The format is biochemical, Burkholderia ambifaria. As to conditions: pH 8.3, 2.5 mM BICINE, 0.2 M NaCl, 1% DMSO, 30 °C.

B1: BmulJ_04915 (Burkholderia multivorans ATCC 17616) (protein)
chain: MGALRIDSHQHFWRYRAADYPWIGAGMGVLARDYLPDALHPLMHAQALGASIAVQARAGRDETAFLLELACDEARIAAVVGWEDLRAPQLAERVAEWRGTKLRGFRHQLQDEADVRAFVDDADFARGVAWLQANDYVYDVLVFERQLPDVQAFCARHDAHWLVLDHAGKPALAEFDRDDTALARWRAALRELAALPHVVCKLSGLVTEADWRRGLRASDLRHIEQCLDAALDAFGPQRLMFGSDWPVCLLAASYDEVASLVERWAESRLSAAERSALWGGTAARCYALPEPADARL
As a reminder, the Km is the substrate concentration at which the rate is half of its maximum. Broadly, the kcat is the number of substrate molecules converted per active site and unit of time at saturation. On to B1, for which the Michaelis-Menten constant (Km) in “purified protein [1]” was 1400 ± 200 µM; in “purified protein [2]”, 1100 ± 200 µM; in the data set “purified protein [3]”, 1500 ± 300 µM; in “purified protein [4]”, 130 ± 30 µM; in “purified protein [5]”, 700 ± 50 µM. Also, the turnover number (kcat) is 140 ± 8 s⁻¹ in “purified protein [1]”; 32 ± 2 s⁻¹ in “purified protein [2]”; 14 ± 1 s⁻¹ in the data set “purified protein [3]”; 994 ± 64 s⁻¹ in the data set “purified protein [4]”; 59 ± 2 s⁻¹ in “purified protein [5]”.

B2: BmulJ_04919 (Burkholderia multivorans ATCC 17616) (protein)
chain: MDLNLQDKVVIVTGGASGIGGAISMRLAEERAIPVVFARHAPDGAFLDALAQRQPRATYLPVELQDDAQCRDAVAQTIATFGRLDGLVNNAGVNDGIGLDAGRDAFVASLERNLIHYYAMAHYCVPHLKATRGAIVNISSKTAVTGQGNTSGYCASKGAQLALTREWAVALREHGVRVNAVIPAEVMTPLYRNWIATFEDPEAKLAEIAAKVPLGRRFTTPDEIADTAVFLLSPRASHTTGEWLFVDGGYTHLDRALV
Broadly, the kcat/Km is the turnover number divided by the Michaelis constant. With B2, the Km in the data set “purified protein [6]” came out at 28 ± 4 µM. For the same protein, in the data set “purified protein [7]”, the Km is 4.0 ± 0.5 µM, the kcat was determined as 11 ± 0.2 s⁻¹ and the specificity constant (kcat/Km) was determined as 3e+06 M⁻¹ s⁻¹.

B3: Bamb_1224 (Burkholderia ambifaria AMMD) (protein)
chain: MTFRIDAHQHFWQMASRDGYWPPQTLDAIYRDFGPQDLEPLLARSGVQRTVVVQSLPTQEDTRYLLDVASRTSFVAAVVGWVDLKSTDAPADIASLARDPKFRGIRPMLQDLADDDWIDDPVLEPAIDAMLAHDLAFDALVTPRHLPALLAFARRYPRLRIVIDHAAKPPIASGRSEAWHVAMSELAAHPNVHCKLSGLWTEAGPHPDLLRVEPYVRAVCDWFGASRLIWGSDWPVSRLAGHFGDYGAWLAWCEQCCDRFLGPDARARVFGGNACHFYRIDRPSGDQHAQ
Take B3: the Km was 900 ± 100 µM in the data set “purified protein [8]”; 1300 ± 100 µM in the data set “purified protein [9]”; 1300 ± 300 µM in the data set “purified protein [10]”; 210 ± 20 µM in the data set “purified protein [11]”; 800 ± 100 µM in the data set “purified protein [12]”. For the same protein, the kcat in “purified protein [8]” was found to be 89 ± 4 s⁻¹; in “purified protein [9]”, 55 ± 2 s⁻¹; in the data set “purified protein [10]” it was 6.0 ± 0.5 s⁻¹; in “purified protein [11]” it was 1530 ± 47 s⁻¹; in the data set “purified protein [12]”, 19 ± 1 s⁻¹.
